Experimental findings from patent publication US20160244499A1 are described below.

For assay [1], the target named is C-terminally biotinylated γc ectodomain (human) (UniProt P31785). Kind of assay: SPR (Biacore T100), biotinylated γc on SA chip, cytokine/IL-4Rα complex as analyte, 1:1 model.
In assay [2] the target is C-terminally biotinylated IL-13Rα1 ectodomain (human) (UniProt P78552). Put plainly: SPR (Biacore T100), biotinylated IL-13Rα1 on SA chip, cytokine/IL-4Rα complex as analyte, 1:1 model. On the technique in general: SPR reads the build-up and loss of mass on a sensor chip optically.
For assay [3] the target is unchanged. Kind of assay: Table 1, affinity for IL-13Rα1; method for this row not stated.
Assay [4] concerns the target C-terminally biotinylated γc ectodomain (human) (UniProt P31785). Kind of assay: SPR, cytokine/IL-4Rα complex on immobilised γc.
For assay [5] the target is unchanged. Kind of assay: SPR, comparison of affinities for γc and IL-13Rα1.
For assay [6], the target named is C-terminally biotinylated IL-13Rα1 ectodomain (human) (UniProt P78552). Kind of assay: SPR (Biacore T100), biotinylated IL-13Rα1 on SA chip, cytokine/IL-4Rα complex as analyte.
For assay [7], the target named is T1, γc on human cell lines (Ramos, HH, U937) (human) (UniProt P31785).
T1 sequence (looked up): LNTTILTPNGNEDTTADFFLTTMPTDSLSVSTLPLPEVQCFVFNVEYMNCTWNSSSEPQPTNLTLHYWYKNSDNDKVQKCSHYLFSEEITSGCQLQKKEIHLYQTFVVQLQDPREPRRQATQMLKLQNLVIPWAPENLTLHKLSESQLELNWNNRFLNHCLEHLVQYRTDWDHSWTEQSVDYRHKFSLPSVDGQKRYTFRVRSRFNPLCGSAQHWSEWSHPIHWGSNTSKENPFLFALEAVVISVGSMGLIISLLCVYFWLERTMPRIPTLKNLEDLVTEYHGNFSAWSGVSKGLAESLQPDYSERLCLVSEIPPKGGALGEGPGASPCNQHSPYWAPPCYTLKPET
Put plainly: cell-based or functional assay.

Chain of wild-type IL-4, free recombinant cytokine (P05112 other isoform, or with tags, fused parts or gaps): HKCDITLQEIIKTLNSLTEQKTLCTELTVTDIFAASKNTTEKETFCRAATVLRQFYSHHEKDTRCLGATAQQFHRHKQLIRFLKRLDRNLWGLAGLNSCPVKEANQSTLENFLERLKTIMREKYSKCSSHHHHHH

Broadly, the Kd is the equilibrium constant for the complex coming apart. A lower Kd goes with tighter binding. One may read the koff as a measure of how fast the partners let go of each other. Lower therefore signals slow dissociation. One may read the kon as a measure of how fast the partners come together. Low values mean slow association, high ones fast association. In assay [1], “wild-type IL-4/IL-4Rα binary complex (from UniProt P24394 26-202)” yielded a dissociation constant (Kd) of 3.3 µM, an off-rate constant (koff) of 0.31 s⁻¹ and a kon of 95000 M⁻¹ s⁻¹. In assay [2], this substance showed a Kd of 4.2 µM, an off-rate constant (koff) of 0.17 s⁻¹ and an association rate constant (kon) of 41000 M⁻¹ s⁻¹.
“IL-13 (from UniProt P35225 35-146) (ligand)” gave a Kd in assay [3] of 0.03 µM.
In assay [4], “RGA/IL-4Rα binary complex (from UniProt P24394 26-202)” returned a fold faster on-rate (against IL-4) of 6 fold, a fold higher affinity (against IL-4/IL-4Rα) of 3700 fold and a logs gained in binding affinity (against IL-4) of 4 log. In assay [5], this substance displayed a selectivity for the Type-I receptor complex over the Type-II receptor of 6 log. The substance further returned an equilibrium dissociation constant (Kd) in assay [6] of 21 µM. In assay [1], the Kd stood at 0.00089 µM, the dissociation rate constant (koff) stood at 0.00059 s⁻¹ and the kon is 660000 M⁻¹ s⁻¹.
As for “wild-type IL-4, free recombinant cytokine (from UniProt P05112 25-153) (ligand)”, in assay [7], the mean MFI of STAT6 phosphorylation, Ramos cells, 100 pg/ml, 20 minute stimulation was determined as 7.7 MFI; the percentage decrease in STAT6 phosphorylation caused by 50 µg/ml of anti-γc, Ramos cells, 100 pg/ml cytokine is 58%; the reduction in STAT6 phosphorylation on blocking γc in U937 cells came out at 44%.
